This is an account of results in patent US8148141.

This assay has as its target amylase. As to the kind of experiment: fluorescence of immobilized carboxyfluorescein-labeled peptide on chip, ex 490 nm / em 520 nm, 1.0 uM amylase, 25 C, 5 min.

Ends that are not written are not given here. carboxyfluorescein = carboxyfluorescein (fluorescent group)

Turning to K(carboxyfluorescein)YQSWRYSQAC-NH2 [Lys(Rf)-Tyr-Gln-Ser-Trp-Arg-Tyr-Ser-Gln-Ala-Cys-NH2], the increase of the fluorescence intensity (fold) worked out at 10 times.
